These results are taken from patent publication US20240150445A1 (DUKE UNIVERSITY, published 2024).

This assay deals with Env 10.17 gp120 (HIV-1). Briefly: direct-binding ELISA (OD450) on CH848.d0949.10.17 gp120 [panel A]. On the technique in general: In an ELISA, binding on a coated surface is turned into a signal by an enzyme label.

B1: DH270.IA4 (antibody, V domains shown)
VH: QVQLVQSGAEVKKPGASVKVSCKASGYTFTDYYIHWVRQAPGQGLEWMGWINPNTGRTNYAQKFQGRVTMTRDTSISTAYMELSRLRSDDTAVYYCARGGWIGLYYDSSGYPNFDYWGQGTLVTVSS
VL: QSALTQPASVSGSPGQSITISCTGTSYDVGSYNLVSWYQQHPGKAPKLMIYEVSKRPSGVSNRFSGSKSGNTASLTISGLQAEDEADYYCCSYAGSSTVIFGGGTKLTVL
notes: Inferred intermediate, recombinant IgG; also called DH270.I4
Turning to B1, the EC50 (read off the curve) – broadly, the concentration giving half of the maximal effect – is around 2 µg/mL.
